Assay results published in patent US20230357348A1 (AstraZeneca / MedImmune, published 2023).
Starred links: 1 amine or outer side, 2 acyl side, 3 side chain; linkers in the order of their positions; H or OH if unused. Non-standard residues stand in square brackets, D forms with d. Groups on a side chain read outwards from the residue. Primed or numbered codes have the meaning given here. No end group written: not given here. *: point of attachment. C20 diacid = O=C(O)CCCCCCCCCCCCCCCCCCC(=O)*; C18 diacid = O=C(O)CCCCCCCCCCCCCCCCC(=O)*; γGlu = O=C(O)[C@H](CCC(=O)[*:2])N[*:1]; Stearoyl = CCCCCCCCCCCCCCCCCC(=O)*; Palmitoyl = CCCCCCCCCCCCCCCC(=O)*; αMeF = C[C@](N)(Cc1ccccc1)C(=O)O; (PEG)2 = polyethylene glycol 2; PEG2′ = polyethylene glycol 2; AEEA = NCCOCCOCC(=O)O; Aib = CC(C)(N)C(=O)O

B1: Peptide 357 (peptide)
peptide: HXHGSXTSDVSKXLDSQAAQDFVXWIANT
modifications: Aib at 2; αMePhe at 6 and 13; K(γE-γE-(PEG)2-γE-γE-C20diacid)24; C-terminal amide
B2: Peptide 360 (peptide)
peptide: H[Aib]IGS[αMeF]TSDVSK[αMeF]LDSRAAQDFVK([AEEA-AEEA-γGlu-C20 diacid])WIANT-NH2
modifications: N-terminus assumed
SMILES: CC[C@H](C)[C@H](NC(=O)[C@H](Cc1c[nH]c2ccccc12)NC(=O)[C@H](CCCCNC(=O)COCCOCCNC(=O)COCCOCCNC(=O)CC[C@H](NC(=O)CCCCCCCCCCCCCCCCCCC(=O)O)C(=O)O)NC(=O)[C@@H](NC(=O)[C@H](Cc1ccccc1)NC(=O)[C@H](CC(=O)O)NC(=O)[C@H](CCC(N)=O)NC(=O)[C@H](C)NC(=O)[C@H](C)NC(=O)[C@H](CCCNC(=N)N)NC(=O)[C@H](CO)NC(=O)[C@H](CC(=O)O)NC(=O)[C@H](CC(C)C)NC(=O)[C@](C)(Cc1ccccc1)NC(=O)[C@H](CCCCN)NC(=O)[C@H](CO)NC(=O)[C@@H](NC(=O)[C@H](CC(=O)O)NC(=O)[C@H](CO)NC(=O)[C@@H](NC(=O)[C@](C)(Cc1ccccc1)NC(=O)[C@H](CO)NC(=O)CNC(=O)[C@@H](NC(=O)C(C)(C)NC(=O)[C@@H](N)Cc1c[nH]cn1)[C@@H](C)CC)[C@@H](C)O)C(C)C)C(C)C)C(=O)N[C@@H](C)C(=O)N[C@@H](CC(N)=O)C(=O)N[C@H](C(N)=O)[C@@H](C)O
B3: Peptide 361 (peptide)
peptide: H[Aib]IGS[αMeF]TSDVSK[αMeF]LDSRAAQDFVK([AEEA-AEEA-γGlu-C18 diacid])WIANT-NH2
modifications: N-terminus assumed
SMILES: CC[C@H](C)[C@H](NC(=O)[C@H](Cc1c[nH]c2ccccc12)NC(=O)[C@H](CCCCNC(=O)COCCOCCNC(=O)COCCOCCNC(=O)CC[C@H](NC(=O)CCCCCCCCCCCCCCCCC(=O)O)C(=O)O)NC(=O)[C@@H](NC(=O)[C@H](Cc1ccccc1)NC(=O)[C@H](CC(=O)O)NC(=O)[C@H](CCC(N)=O)NC(=O)[C@H](C)NC(=O)[C@H](C)NC(=O)[C@H](CCCNC(=N)N)NC(=O)[C@H](CO)NC(=O)[C@H](CC(=O)O)NC(=O)[C@H](CC(C)C)NC(=O)[C@](C)(Cc1ccccc1)NC(=O)[C@H](CCCCN)NC(=O)[C@H](CO)NC(=O)[C@@H](NC(=O)[C@H](CC(=O)O)NC(=O)[C@H](CO)NC(=O)[C@@H](NC(=O)[C@](C)(Cc1ccccc1)NC(=O)[C@H](CO)NC(=O)CNC(=O)[C@@H](NC(=O)C(C)(C)NC(=O)[C@@H](N)Cc1c[nH]cn1)[C@@H](C)CC)[C@@H](C)O)C(C)C)C(C)C)C(=O)N[C@@H](C)C(=O)N[C@@H](CC(N)=O)C(=O)N[C@H](C(N)=O)[C@@H](C)O
B4: Peptide 368 (peptide)
peptide: H[Aib]HGS[αMeF]TSDVSK[αMeF]LDSR[Aib]AQDFVK([AEEA-AEEA-γGlu-C20 diacid])WIANT-NH2
modifications: N-terminus assumed
SMILES: CC[C@H](C)[C@H](NC(=O)[C@H](Cc1c[nH]c2ccccc12)NC(=O)[C@H](CCCCNC(=O)COCCOCCNC(=O)COCCOCCNC(=O)CC[C@H](NC(=O)CCCCCCCCCCCCCCCCCCC(=O)O)C(=O)O)NC(=O)[C@@H](NC(=O)[C@H](Cc1ccccc1)NC(=O)[C@H](CC(=O)O)NC(=O)[C@H](CCC(N)=O)NC(=O)[C@H](C)NC(=O)C(C)(C)NC(=O)[C@H](CCCNC(=N)N)NC(=O)[C@H](CO)NC(=O)[C@H](CC(=O)O)NC(=O)[C@H](CC(C)C)NC(=O)[C@](C)(Cc1ccccc1)NC(=O)[C@H](CCCCN)NC(=O)[C@H](CO)NC(=O)[C@@H](NC(=O)[C@H](CC(=O)O)NC(=O)[C@H](CO)NC(=O)[C@@H](NC(=O)[C@](C)(Cc1ccccc1)NC(=O)[C@H](CO)NC(=O)CNC(=O)[C@H](Cc1c[nH]cn1)NC(=O)C(C)(C)NC(=O)[C@@H](N)Cc1c[nH]cn1)[C@@H](C)O)C(C)C)C(C)C)C(=O)N[C@@H](C)C(=O)N[C@@H](CC(N)=O)C(=O)N[C@H](C(N)=O)[C@@H](C)O
B5: Peptide 392 (of Table 9, position 10) (peptide)
peptide: H[Aib]HGS[αMeF]TSDK([AEEA-AEEA-γGlu-C18 diacid])SK[αMeF]LDSRAAQD[αMeF]VQ[Aib]IANT-NH2
modifications: N-terminus assumed
SMILES: CC[C@H](C)[C@H](NC(=O)C(C)(C)NC(=O)[C@H](CCC(N)=O)NC(=O)[C@@H](NC(=O)[C@](C)(Cc1ccccc1)NC(=O)[C@H](CC(=O)O)NC(=O)[C@H](CCC(N)=O)NC(=O)[C@H](C)NC(=O)[C@H](C)NC(=O)[C@H](CCCNC(=N)N)NC(=O)[C@H](CO)NC(=O)[C@H](CC(=O)O)NC(=O)[C@H](CC(C)C)NC(=O)[C@](C)(Cc1ccccc1)NC(=O)[C@H](CCCCN)NC(=O)[C@H](CO)NC(=O)[C@H](CCCCNC(=O)COCCOCCNC(=O)COCCOCCNC(=O)CC[C@H](NC(=O)CCCCCCCCCCCCCCCCC(=O)O)C(=O)O)NC(=O)[C@H](CC(=O)O)NC(=O)[C@H](CO)NC(=O)[C@@H](NC(=O)[C@](C)(Cc1ccccc1)NC(=O)[C@H](CO)NC(=O)CNC(=O)[C@H](Cc1c[nH]cn1)NC(=O)C(C)(C)NC(=O)[C@@H](N)Cc1c[nH]cn1)[C@@H](C)O)C(C)C)C(=O)N[C@@H](C)C(=O)N[C@@H](CC(N)=O)C(=O)N[C@H](C(N)=O)[C@@H](C)O

The binders below were run against T1, human glucagon receptor (hGCGR) (human, UniProt P47871 26-477) (assay: cell-based or functional assay).
T1 sequence (P47871 26-477): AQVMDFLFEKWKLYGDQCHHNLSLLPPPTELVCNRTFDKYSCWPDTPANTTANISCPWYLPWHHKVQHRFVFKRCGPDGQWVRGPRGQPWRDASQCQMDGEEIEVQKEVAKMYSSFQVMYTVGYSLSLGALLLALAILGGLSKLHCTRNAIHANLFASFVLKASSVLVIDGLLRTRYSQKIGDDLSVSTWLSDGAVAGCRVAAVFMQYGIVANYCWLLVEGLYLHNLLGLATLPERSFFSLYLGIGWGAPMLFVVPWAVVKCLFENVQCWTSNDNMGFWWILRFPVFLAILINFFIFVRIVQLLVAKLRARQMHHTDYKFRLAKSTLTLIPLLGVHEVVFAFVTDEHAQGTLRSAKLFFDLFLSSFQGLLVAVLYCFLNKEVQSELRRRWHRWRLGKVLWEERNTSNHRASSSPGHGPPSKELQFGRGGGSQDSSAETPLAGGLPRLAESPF

Binder	hGluc-R EC50 (pM); cAMP production
B1	550 pM
HXIGSXTSDVSKXLDSQAAQDFVXWIANT (Aib at 2; αMePhe at 6 and 13; K(O2Oc-O2Oc-γE-C18diacid)24; C-terminal amide) [Peptide 359]	5050 pM
B2	5640 pM
B3	23.6 pM
H[Aib]HGS[αMeF]TSDVSK[αMeF]LDSRAAQDFVK([AEEA-AEEA-γGlu-C20 diacid])WIANT-NH2 (not fully specified) [Peptide 367]	72.4 pM
B4	290 pM

These binders were tested against T2, human GLP-1 receptor (hGLP-1R) (human, UniProt P43220 24-463) (assay: cell-based or functional assay).

Binder	hGLP-1R EC50 (pM); cAMP production
B1	917 pM
HXIGSXTSDVSKXLDSQAAQDFVXWIANT (Aib at 2; αMePhe at 6 and 13; K(O2Oc-O2Oc-γE-C18diacid)24; C-terminal amide) [Peptide 359]	46.1 pM
B2	108 pM
B3	35.7 pM
H[Aib]HGS[αMeF]TSDVSK[αMeF]LDSRAAQDFVK([AEEA-AEEA-γGlu-C20 diacid])WIANT-NH2 (not fully specified) [Peptide 367]	139 pM
B4	186 pM

Molecular target: T1, human glucagon receptor (hGCGR)
Assay: cell-based or functional assay
Remark: another data set of the same source

Binder	hGluc-R EC50 (pM); cAMP production
B5	6920 pM
H[Aib]QGS[αMeF]TSDK([PEG2′-PEG2′-γGlu-Palmitoyl])SKILDSRAAQD[αMeF]VEWIANT-NH2 [Peptide 396 (of Table 9, position 10)]	11.8 pM

Molecular target: T2, human GLP-1 receptor (hGLP-1R)
Assay: cell-based or functional assay
Remark: another data set of the same source

Binder	hGLP-1R EC50 (pM); cAMP production
B5	312 pM
H[Aib]QGS[αMeF]TSDK([PEG2′-PEG2′-γGlu-Palmitoyl])SKILDSRAAQD[αMeF]VEWIANT-NH2 [Peptide 396 (of Table 9, position 10)]	0.583 pM

Molecular target: T1, human glucagon receptor (hGCGR)
Assay: cell-based or functional assay
Remark: another data set of the same source

Binder	hGluc-R EC50 (pM); cAMP production
H[Aib]QGS[αMeF]TSDVSKK([(PEG)2-(PEG)2-γGlu-Palmitoyl])LDSRAAQD[αMeF]VEWIANT-NH2 [Peptide 402 (of Table 10, position 13)]	18.1 pM
HSQGS[αMeF]TSDVSKK([AEEA-AEEA-γGlu-γGlu-Stearoyl])LDSQAAQD[αMeF]VE[Aib]LANT-NH2 [Peptide 404 (of Table 10, position 13)]	21.8 pM

Molecular target: T2, human GLP-1 receptor (hGLP-1R)
Assay: cell-based or functional assay
Remark: another data set of the same source

Binder	hGLP-1R EC50 (pM); cAMP production
H[Aib]QGS[αMeF]TSDVSKK([(PEG)2-(PEG)2-γGlu-Palmitoyl])LDSRAAQD[αMeF]VEWIANT-NH2 [Peptide 402 (of Table 10, position 13)]	1.04 pM
HSQGS[αMeF]TSDVSKK([AEEA-AEEA-γGlu-γGlu-Stearoyl])LDSQAAQD[αMeF]VE[Aib]LANT-NH2 [Peptide 404 (of Table 10, position 13)]	5.65 pM
